From article PMC6880876 come the findings set out here.

This assay has as its target end-binding protein 3 (EB3), full-length, recombinant (UniProt Q9UPY8). The experiment in a line: ELISA. For orientation: ELISA stands for enzyme-linked immunosorbent assay.
Sequence of UniProt Q9UPY8 (Q9UPY8 whole entry): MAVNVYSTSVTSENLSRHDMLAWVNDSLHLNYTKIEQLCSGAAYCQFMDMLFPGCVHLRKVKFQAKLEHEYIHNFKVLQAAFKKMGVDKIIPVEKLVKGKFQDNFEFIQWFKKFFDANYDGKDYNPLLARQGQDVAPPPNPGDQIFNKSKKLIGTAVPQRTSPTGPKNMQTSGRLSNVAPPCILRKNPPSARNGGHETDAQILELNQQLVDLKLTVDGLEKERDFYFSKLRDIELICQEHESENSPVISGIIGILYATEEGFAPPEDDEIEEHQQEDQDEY

Regarding “full-length WT tau (0N4R) (from UniProt P10636-6 1-383) (natural protein)”, the Kd was found to be 22 nM.

A word on the Kd: it is the equilibrium constant for the complex coming apart.
